Target: GCN4pLI-HCN2(CNBD) tetramer (human)
Experiment: SEC; GCN4pLI-HCN2(CNBD) in solution; column and buffer not told for this run

stoichiometry N: 4
Substance: GCN4pLI-HCN2(CNBD) tetramer

— paper PMC5115869
